Experimental data published in patent US20220362330A1, “Compositions and Methods for Increasing Epithelial Barrier Function” (The Board of Trustees of the Leland Stanford Junior …, priority 2019, published 2022).
“Also recorded” adds a separate entry of the source. Square brackets hold non-standard residues; d marks the D form. Ends that are not written are not given here. Ahx = NCCCCCC(=O)O

Tests used:
[1] = test system: desmoglein-1a (DSG1a); assay: qRT-PCR of Dsg1a gene expression in vaginal tissue; format: in vivo, mice
Procedure: (§1) To define progestin-mediated changes in mucosal permeability, vaginal tissue from mice in estrus, diestrus, or after DMPA or LNG treatment was used to measure expression of the desmosomal cadherins desmoglein-1a (DSG1a) and desmocollin-1 (DSC1).
(§2) Human ectocervical and murine vaginal tissues were immediately immersed in 1 mL of RNAlater® (Qiagen), stored for 24 h at 4° C., and stored long-term at −80° C. RNA isolated using the RNeasy Lipid Tissue Kit (Qiagen) using manufacturer's instructions was re-suspended in nuclease-free water and quantified using a NanoDrop spectrophotometer (Thermo Scientific). The following mouse primers were utilized: desmocollin 1 (Mm00496525_ml), desmoglein-1α (Mm00809994_s1), ephrinA3 (Mm01212723_g1) and pyruvate carboxylase (Mm00500992_ml) as housekeeping reference gene (all from Thermo Scientific). These human primers were used: desmoglein-1 (Hs00355084_m1) and glucose-6-phosphate isomerase (Hs00976711_m1) as a housekeeping reference gene. To define relative gene expression, 100 ng of RNA was mixed with TaqMan® RNA-to-Ct™ 1-Step Kit and adequate primer (final volume of 10 μL/well) using manufacturer's instructions (Life Technologies). qRT-PCR was performed using a Quantstudio3 Thermal Cycler, and data analyzed via Quanstudio Software (Applied Biosystems).

[2] = test system: vaginal epithelium; assay: Vaginal epithelial integrity and thickness in OVX mice, histology; format: in vivo; settings: ivag for 9 consecutive days, peptide dimer 10^−4 μM, Fc-EFNA3 1 μM
Procedure: Mice in estrus and OVX mice were used in these experiments. OVX mice received PBS alone, EFNA3-derived peptide dimer (10^−4 μM) or recombinant mouse Fc-EFNA3 (1 μM) via atraumatic intravaginal administration for 9 consecutive days. All mice were euthanized, and vaginal tissue processed for histological evaluation and measurement of vaginal epithelial thickness.
8-10 weeks female C57BL/6J mice were anesthetized. Dorsal skin was shaved and cleaned with 70% ethanol followed by povidone-iodine. Following appropriate sterile technique, a single dorsal skin incision was performed, followed by dissection until ovarian fat pads were identified and ovaries removed. Peritoneal and abdominal walls were sutured, and mice recovered from anesthesia. After confirmation of suppression of estrous cycle, mice were used in experiments.

[3] = test system: VK2/E6E7 vaginal cells; assay: DSG1 gene expression in human vaginal epithelial cell line; format: cell-based; settings: 24 h, qRT-PCR
Procedure: VK2/E6E7 vaginal cells at 70-90% confluency were treated with indicated concentrations of EFNA3-derived peptide dimer for 24 h. Cells were harvested for RNA isolation and determination of relative DSG1 gene expression via qRT-PCR and ΔΔCt analysis.
VK2/E6E7 (ATCC® CRL-2616™) vaginal epithelial cell line was grown using ReproLife™ Reproductive Medium Complete Kit for up to 4 passages. For experiments, 10^5 cells were plated in 12-well plates. Cells reached 70-90% confluency after 24 hand were stimulated with EFNA3-like peptide dimer or vehicle. Cells were incubated for 24 h with indicated treatments. RNA was extracted and 500 ng of RNA used to generate cDNA using the SuperScript™ IV VILO™ Master Mix. Relative DSG1 (Hs00355084_m1) gene expression was calculated by normalization with the housekeeping gene glucose-6-phosphate isomerase (Hs00976711_m1) via qRT-PCR.

[4] = test system: genital mucosal barrier; assay: Murine tissue permeability assay, low molecular weight fluorescent molecules given intravaginally; format: in vivo, mice
Procedure: Effects of progestins on genital mucosal barrier permeability were evaluated by intravaginally (ivag) administering 457 Da and 70 KDa-sized fluorescent molecules to mice in estrus or diestrus-stage or after DMPA or LNG treatment. Mice were grouped as follows: untreated in estrus, untreated in diestrus, DMPA treated, or LNG treated. The mice were intravaginally administered a PBS solution containing Lucifer yellow (457 Da) and Texas-Red-conjugated dextran (70 KDa). Animals were euthanized 45 minutes later to assess vaginal tissue penetration of these molecules by confocal microscopy. […] Mucosal permeability was increased moderately by diestrus, but dramatically by DMPA or LNG. Conversely, permeability increases were negligible in estrus-stage mice and mice treated with MePRDL or DMPA and RU486. This indicates exogenous progestins increase genital mucosal permeability.
To evaluate mucosal permeability to low molecular weight molecules, indicated groups of mice were sedated, and 10 μL of a PBS solution containing 62.5 μg of dextran Texas-Red® (DR) (MW=70,000 Da) and 50 μg of Lucifer yellow CH, lithium salt (LY) (MW=457.2 Da) (both from Life Technologies) administered intravaginally. 45 minutes later, mice were euthanized, and excised vaginal tissue fixed in formaldehyde. Fixed tissue was embedded in agarose, and 200-300 μm specimens were sectioned with a vibratome. After counterstaining with 4,6-diamidino-2-phenylindole (DAPI), confocal microscopy images were acquired by sequential scanning to prevent fluorescence crossover.

[5] = test system: desmocollin-1 (DSC1); assay: qRT-PCR of Dsc1 gene expression in vaginal tissue; format: in vivo, mice; settings: DMPA-treated mice
Procedure: as §1, §2

[6] = test system: DSG1 protein; assay: DSG1 protein levels in vaginal tissue, immunofluorescent staining and confocal microscopy; format: in vivo, mice
Procedure: Excised mouse vaginas were formaldehyde fixed and paraffin embedded (FFPE), and 10 μm sections mounted on glass slides and de-paraffinized by sequential immersion in 100% xylene, 100% ethanol, 96% ethanol, and sterile DEPC-treated water. Antigen retrieval was performed using 10 mM sodium citrate buffer (pH 6.0) containing 0.05% Tween 20 (both Sigma-Aldrich) (20 minutes at 95° C.). After 3 PBS washes, sections were incubated overnight in 10% normal goat serum (Abcam, Cambridge Mass.) at 4° C., then incubated for 1 h at ambient temperate with rabbit anti-desmoglein-1 (clone EPR6766(B)) antibody, washed and incubated for 1 h with AlexaFluor® 488-labeled goat anti-rabbit IgG (antibodies from Abcam) (all antibodies were diluted in PBS with 1% BSA and 0.05% Tween 20). Sections were stained with DAPI and evaluated for levels of DSG1 protein (defined by calculating pixel numbers per 100 μm^2) using confocal microscopy and ImageJ software.

[7] = test system: HSV-2; assay: Lethal genital HSV-2 infection; format: in vivo; settings: DMPA-treated mice; 10^4 pfu of HSV-2
Procedure: Mice were sedated with xylazine (Lloyd Laboratories, Shenandoah Iowa) and ketamine hydrochloride (JHP Pharmaceuticals, LLC Rochester Mich.), and intravaginally infected with 10^4 plaque-forming units (pfu) of WT HSV-2 333 in 10 μL of RPMI. Mouse mortality was evaluated daily for 15 days.

[8] = test system: anti-OVA IgE; assay: Mouse epicutaneous sensitization model of atopic dermatitis, serum anti-OVA IgE ELISA; format: in vivo, mice; settings: 3 cycles, OVA + Fc-EFNA3 vs OVA alone
Procedure: Mice underwent epicutaneous sensitization with OVA alone or in combination with recombinant mouse Fc-EFNA3. After 3 sensitization cycles, animals were euthanized to obtain blood for serum isolation. Then, levels of serum anti-OVA IgE was determined via ELISA.
6-10 weeks old Balb/cJ mice were anesthetized. Dorsal skin was shaved, and skin tape-stripped 6 times. PBS alone, 100 μg of ovalbumin (OVA) in PBS or 100 μg OVA+recombinant mouse Fc-EFNA3 in 100 μl of PBS were added to a 1×1 cm sterile gauze that was applied directly to tape-stripped area of skin and covered with a transparent bio-occlusive dressing. This patch was left in place for a 1-week period and removed. This procedure was repeated twice with 2-week intervals between applications. After completing the 3rd skin sensitization, mice were euthanized and serum samples obtained. Serum levels of anti-OVA IgE were was determined using an in-house ELISA.

RYSAFSLGYEFH-Ahx-K-HFEYGLSFASYR (RYSAFSLGYEFH[Ahx]KHFEYGLSFASYR; also: Ahx-Lys linked dimer) [EFNA3-derived peptide dimer, Ahx is aminohexanoic acid]
potency on Dsg1a expression compared to recombinant mouse Fc-EFNA3 ([1]; DMPA-treated mice, Fc-EFNA3 at 1 μM): greater potency
Dsg1a mouse vaginal expression ([1]; DMPA-treated mice, topical/ivag in PBS, 24 hours): promotes Dsg1a mouse vaginal expression
expression of cell-cell adhesion molecules in genital mucosal epithelium ([1]; topical administration): significantly increases
vaginal epithelial integrity (epithelial thickness) [2]: improves vaginal epithelial integrity
DSG1 gene expression [3]: increase DSG1 expression; also recorded: promotes DSG1 expression

B1: Fc-EFNA3: Recombinant Mouse Ephrin-A3 Fc Chimera Protein, SEQ ID NO: 13 (protein)
chain: QGPGGALGNRHAVYWNSSNQHLRREGYTVQVNVNDYLDIYCPHYNSSGPGGGAEQYVLYMVNLSGYRTCNASQGSKRWECNRQHASHSPIKFSEKFQRYSAFSLGYEFHAGQEYYYISTPTHNLHWKCLRMKVFVCCASTSHSGEKPVPTLPQFTMGPNVKINVLEDFEGENPQVPKLEKSISGIEGRMDPAKTTAPSVYPLAPVCGDTTGSSVTLGCLVKGYFPEPVTLTWNSGSLSSGVHTFPAVLQSDLYTLSSSVTVTSSTWPSQSITCNVAHPASSTKVDKKIEPRGPTIKPCPPCKCPAPNLLGGPSVFIFPPKIKDVLMISLSPIVTCVVVDVSEDDPDVQISWFVNNVEVHTAQTQTHREDYNSTLRVVSALPIQHQDWMSGKEFKCKVNNKDLPAPIERTISKPKGSVRAPQVYVLPPPEEEMTKKQVTLTCMVTDFMPEDIYVEWTNNGKTELNYKNTEPVLDSDGSYFMYSKLRVEKKNWVERNSYSCSVVHEGLHNHHTTKSFSRTPGK
genital mucosal barrier function / permeability to LMW fluorescent molecules ([4]; DMPA-treated mice, one ivag dose of 1.5 ug/30 uL): decreased genital mucosal permeability
genital mucosal barrier function (summary of the studies) ([4]; via increased expression of epithelial cell-cell adhesion molecules, especially DSG1): enhanced genital mucosal barrier function
dose that optimized Dsg1a gene expression ([1]; DMPA-treated mice, ivag 0.25, 0.5, 1 and 2.5 μg in 10 μL, six hours after treatment): 0.5 µg
expression of Dsg1a ([1]; DMPA-treated mice, ivag, select doses vs Fc-control, 6 h): increased expression
dose that optimized Dsc1 gene expression ([5]; ivag 0.25, 0.5, 1 and 2.5 μg in 10 μL, six hours after treatment): 0.5 µg
expression of Dsc1 ([5]; ivag, select doses vs Fc-control, 6 h): increased expression
homogeneity of DSG1 protein expression ([6]; 1.5 ug in 30 uL of PBS vs 0.5 ug in 10 uL of PBS): more homogeneous expression
dose that optimized levels of DSG1 protein ([6]; DMPA-treated mice, 24 hours after treatment): 0.5 µg
DSG1 expression at higher doses ([6]; DMPA-treated mice, 24 hours, doses above 1 μg): reduced at higher doses
DSG1 protein expression, dose dependence ([6]; DMPA-treated mice, 24 hours, up to the 1 μg dose): dose-dependent increase
survival after genital HSV-2 infection [7]: improves the survival
vaginal epithelial integrity (epithelial thickness) [2]: improves vaginal epithelial integrity
serum allergen-specific (anti-OVA) IgE levels [8]: reduces allergen sensitization
serum allergen-specific (anti-OVA) IgE levels ([8]; listed as recombinant mouse Fc-EFNA3): decreased allergen-specific IgE levels
